From the supplement of paper PMC9112550, “Optimization of the antimicrobial peptide Bac7 by deep mutational scanning” (BMC Biology, 2022)

Test system: Escherichia coli TOP10
Assay: shrunken log2 fold change of peptide-encoding DNA abundance (4.5 h post-induction vs induction); higher = less antimicrobial activity (less host growth inhibition)
Details: time post-induction: 4.5 h; library: site-saturation at positions 5, 18, 19, 20
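Note: peptides expressed intracellularly from a pBAD plasmid library in pooled LB shake-flask culture, induced with 0.3% L-arabinose, DNA abundance read by NGS, three biological replicates, DESeq2 with apeglm shrinkage.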

Sequence: RRIRLRPPRLPRPRPRPKSNPRP
- shrunken log2 fold change: -0.172

Sequence: RRIRDRPPRLPRPRPRPFDKPRP
- shrunken log2 fold change: -0.0665

Sequence: RRIRHRPPRLPRPRPRPADNPRP
- shrunken log2 fold change: -0.306

Sequence: RRIRERPPRLPRPRPRPEAFPRP
- shrunken log2 fold change: 0.0868

Sequence: RRIRMRPPRLPRPRPRPCYVPRP
- shrunken log2 fold change: -0.506

Sequence: RRIRNRPPRLPRPRPRPNVSPRP
- shrunken log2 fold change: 0.0376

Sequence: RRIRYRPPRLPRPRPRPNGQPRP
- shrunken log2 fold change: -0.0885

Sequence: RRIRIRPPRLPRPRPRPSHPPRP
- shrunken log2 fold change: -0.245

Sequence: RRIRWRPPRLPRPRPRPSDFPRP
- shrunken log2 fold change: 0.0215

Sequence: RRIRARPPRLPRPRPRPPKIPRP
- shrunken log2 fold change: 0.327

Sequence: RRIRPRPPRLPRPRPRPCRHPRP
- shrunken log2 fold change: -0.0363

Sequence: RRIRKRPPRLPRPRPRPKRTPRP
- shrunken log2 fold change: 1.7

Sequence: RRIRIRPPRLPRPRPRPACQPRP
- shrunken log2 fold change: 0.0224

Sequence: RRIRGRPPRLPRPRPRPKCNPRP
- shrunken log2 fold change: 0.541

Sequence: RRIRCRPPRLPRPRPRPNHYPRP
- shrunken log2 fold change: -0.825

Sequence: RRIRLRPPRLPRPRPRPTWVPRP
- shrunken log2 fold change: 0.0425

Sequence: RRIRTRPPRLPRPRPRPHSHPRP
- shrunken log2 fold change: -0.626

Sequence: RRIRDRPPRLPRPRPRPDWDPRP
- shrunken log2 fold change: 4.78

Sequence: RRIRGRPPRLPRPRPRPFPKPRP
- shrunken log2 fold change: 0.0687

Sequence: RRIRERPPRLPRPRPRPHPNPRP
- shrunken log2 fold change: -0.0522

Sequence: RRIRCRPPRLPRPRPRPYFIPRP
- shrunken log2 fold change: -1.18

Sequence: RRIRSRPPRLPRPRPRPWDGPRP
- shrunken log2 fold change: -0.0512

Sequence: RRIRYRPPRLPRPRPRPLQHPRP
- shrunken log2 fold change: -0.688

Sequence: RRIRQRPPRLPRPRPRPFGTPRP
- shrunken log2 fold change: -0.1

Sequence: RRIRVRPPRLPRPRPRPGTDPRP
- shrunken log2 fold change: -0.117

Sequence: RRIRFRPPRLPRPRPRPEALPRP
- shrunken log2 fold change: 0.0209

Sequence: RRIRPRPPRLPRPRPRPFTRPRP
- shrunken log2 fold change: -0.00841

Sequence: RRIRSRPPRLPRPRPRPSNQPRP
- shrunken log2 fold change: -0.242

Sequence: RRIRARPPRLPRPRPRPLNTPRP
- shrunken log2 fold change: -0.169

Sequence: RRIRCRPPRLPRPRPRPDAQPRP
- shrunken log2 fold change: 0.456

Sequence: RRIRTRPPRLPRPRPRPTGNPRP
- shrunken log2 fold change: -0.445

Sequence: RRIRQRPPRLPRPRPRPPHTPRP
- shrunken log2 fold change: 1.08

Sequence: RRIRVRPPRLPRPRPRPDYSPRP
- shrunken log2 fold change: -0.107

Sequence: RRIRDRPPRLPRPRPRPNHFPRP
- shrunken log2 fold change: -0.189

Sequence: RRIRDRPPRLPRPRPRPCSNPRP
- shrunken log2 fold change: 0.0176

Sequence: RRIRMRPPRLPRPRPRPYYDPRP
- shrunken log2 fold change: 0.000459

Sequence: RRIRRRPPRLPRPRPRPLHWPRP
- shrunken log2 fold change: 0.235

Sequence: RRIRPRPPRLPRPRPRPEYEPRP
- shrunken log2 fold change: -0.0375

Sequence: RRIRVRPPRLPRPRPRPNWWPRP
- shrunken log2 fold change: 0.175

Sequence: RRIRIRPPRLPRPRPRPMLGPRP
- shrunken log2 fold change: -0.146

Sequence: RRIRTRPPRLPRPRPRPQIMPRP
- shrunken log2 fold change: -0.337

Sequence: RRIRDRPPRLPRPRPRPKDTPRP
- shrunken log2 fold change: 0.0607

Sequence: RRIRCRPPRLPRPRPRPFYAPRP
- shrunken log2 fold change: -0.813

Sequence: RRIRKRPPRLPRPRPRPCTWPRP
- shrunken log2 fold change: -0.15

Sequence: RRIRSRPPRLPRPRPRPLNNPRP
- shrunken log2 fold change: -0.124

Sequence: RRIRLRPPRLPRPRPRPMRAPRP
- shrunken log2 fold change: 0.862

Sequence: RRIRPRPPRLPRPRPRPCGMPRP
- shrunken log2 fold change: 0.0189

Sequence: RRIRNRPPRLPRPRPRPSGSPRP
- shrunken log2 fold change: -0.0937

Sequence: RRIRDRPPRLPRPRPRPKNNPRP
- shrunken log2 fold change: -0.556

Sequence: RRIRKRPPRLPRPRPRPGHTPRP
- shrunken log2 fold change: 0.272

Sequence: RRIRIRPPRLPRPRPRPDHIPRP
- shrunken log2 fold change: -0.0811

Sequence: RRIRYRPPRLPRPRPRPLNAPRP
- shrunken log2 fold change: -0.859

Sequence: RRIRMRPPRLPRPRPRPKLLPRP
- shrunken log2 fold change: 0.0392

Sequence: RRIRERPPRLPRPRPRPQVQPRP
- shrunken log2 fold change: 0.029

Sequence: RRIRRRPPRLPRPRPRPPKTPRP
- shrunken log2 fold change: 0.108

Sequence: RRIRGRPPRLPRPRPRPQAYPRP
- shrunken log2 fold change: -0.0978

Sequence: RRIRERPPRLPRPRPRPQCLPRP
- shrunken log2 fold change: -0.116

Sequence: RRIRIRPPRLPRPRPRPMCIPRP
- shrunken log2 fold change: -0.232

Sequence: RRIRNRPPRLPRPRPRPGGNPRP
- shrunken log2 fold change: -0.0331

Sequence: RRIRRRPPRLPRPRPRPLQLPRP
- shrunken log2 fold change: -0.101

Sequence: RRIRIRPPRLPRPRPRPWEFPRP
- shrunken log2 fold change: -0.000856

Sequence: RRIRLRPPRLPRPRPRPGVWPRP
- shrunken log2 fold change: 0.401

Sequence: RRIRTRPPRLPRPRPRPRKCPRP
- shrunken log2 fold change: -0.1

Sequence: RRIRERPPRLPRPRPRPKALPRP
- shrunken log2 fold change: -0.113

Sequence: RRIRCRPPRLPRPRPRPCCFPRP
- shrunken log2 fold change: -0.155

Sequence: RRIRSRPPRLPRPRPRPEFDPRP
- shrunken log2 fold change: 0.202

Sequence: RRIRGRPPRLPRPRPRPSFTPRP
- shrunken log2 fold change: 0.079

Sequence: RRIRCRPPRLPRPRPRPHMTPRP
- shrunken log2 fold change: -0.331

Sequence: RRIRCRPPRLPRPRPRPFYMPRP
- shrunken log2 fold change: -1.15

Sequence: RRIRMRPPRLPRPRPRPKFSPRP
- shrunken log2 fold change: 0.0925

Sequence: RRIRMRPPRLPRPRPRPKMLPRP
- shrunken log2 fold change: 0.231

Sequence: RRIRSRPPRLPRPRPRPSWFPRP
- shrunken log2 fold change: -0.268

Sequence: RRIRFRPPRLPRPRPRPFHEPRP
- shrunken log2 fold change: -0.649

Sequence: RRIRVRPPRLPRPRPRPCEGPRP
- shrunken log2 fold change: -0.0149

Sequence: RRIRNRPPRLPRPRPRPFVWPRP
- shrunken log2 fold change: -0.0187

Sequence: RRIRKRPPRLPRPRPRPYVEPRP
- shrunken log2 fold change: -1.51

Sequence: RRIRPRPPRLPRPRPRPQSMPRP
- shrunken log2 fold change: -0.609

Sequence: RRIRARPPRLPRPRPRPVWMPRP
- shrunken log2 fold change: 0.0552

Sequence: RRIRQRPPRLPRPRPRPAKYPRP
- shrunken log2 fold change: -0.0291

Sequence: RRIRYRPPRLPRPRPRPQQGPRP
- shrunken log2 fold change: -0.34

Sequence: RRIRTRPPRLPRPRPRPIIIPRP
- shrunken log2 fold change: -0.219

Sequence: RRIRRRPPRLPRPRPRPTDGPRP
- shrunken log2 fold change: 0.0329

Sequence: RRIRSRPPRLPRPRPRPADDPRP
- shrunken log2 fold change: 0.479

Sequence: RRIRARPPRLPRPRPRPHMIPRP
- shrunken log2 fold change: 0.028

Sequence: RRIRKRPPRLPRPRPRPGPAPRP
- shrunken log2 fold change: 1.05

Sequence: RRIRNRPPRLPRPRPRPDREPRP
- shrunken log2 fold change: -0.149

Sequence: RRIRQRPPRLPRPRPRPFYGPRP
- shrunken log2 fold change: -0.00903

Sequence: RRIRHRPPRLPRPRPRPCAYPRP
- shrunken log2 fold change: -0.0102

Sequence: RRIRFRPPRLPRPRPRPVPTPRP
- shrunken log2 fold change: 0.113

Sequence: RRIRPRPPRLPRPRPRPETWPRP
- shrunken log2 fold change: 0.1

Sequence: RRIRIRPPRLPRPRPRPNKKPRP
- shrunken log2 fold change: -0.0918

Sequence: RRIRCRPPRLPRPRPRPRHWPRP
- shrunken log2 fold change: 0.261

Sequence: RRIRMRPPRLPRPRPRPCGNPRP
- shrunken log2 fold change: 0.137

Sequence: RRIRFRPPRLPRPRPRPWYSPRP
- shrunken log2 fold change: -0.0415

Sequence: RRIRPRPPRLPRPRPRPFPCPRP
- shrunken log2 fold change: -0.0101

Sequence: RRIRGRPPRLPRPRPRPRLHPRP
- shrunken log2 fold change: 0.653

Sequence: RRIRPRPPRLPRPRPRPETFPRP
- shrunken log2 fold change: 0.176

Sequence: RRIRDRPPRLPRPRPRPYQNPRP
- shrunken log2 fold change: -0.288

Sequence: RRIRYRPPRLPRPRPRPYTEPRP
- shrunken log2 fold change: 0.034

Sequence: RRIRSRPPRLPRPRPRPKLWPRP
- shrunken log2 fold change: 0.564

Sequence: RRIRQRPPRLPRPRPRPDTKPRP
- shrunken log2 fold change: -0.00171

Sequence: RRIRRRPPRLPRPRPRPRVCPRP
- shrunken log2 fold change: 0.89

Sequence: RRIRDRPPRLPRPRPRPNMTPRP
- shrunken log2 fold change: 0.0572

Sequence: RRIRVRPPRLPRPRPRPVAYPRP
- shrunken log2 fold change: -0.282

Sequence: RRIRIRPPRLPRPRPRPFSTPRP
- shrunken log2 fold change: -0.38

Sequence: RRIRWRPPRLPRPRPRPLESPRP
- shrunken log2 fold change: 0.176

Sequence: RRIRQRPPRLPRPRPRPMRLPRP
- shrunken log2 fold change: 0.0296

Sequence: RRIRNRPPRLPRPRPRPCWGPRP
- shrunken log2 fold change: -0.315

Sequence: RRIRFRPPRLPRPRPRPFKKPRP
- shrunken log2 fold change: -0.119
